Reference: US7067277 (H LUNDBECK A S, dated 2006)

How the values were obtained:
Test in all cases: cell-based or functional assay
[1] = target: human GLP-1 receptor (human, UniProt P43220 24-463)
[2] = target: human 5HT7 receptor (human, UniProt P34969 1-479)
[3] = target: human dopamine D5 receptor (human, UniProt P21918 1-477)
[4] = target: human 5HT4 receptor (human, UniProt Q13639 1-388)
[5] = target: human 5HT6 receptor (human, UniProt P50406 1-440)
[6] = target: human β2 adrenergic receptor (human, UniProt P07550 1-413)
[7] = target: T1, human dopamine D1 receptor (human, UniProt P21728 1-446)
T1 sequence (P21728 whole entry): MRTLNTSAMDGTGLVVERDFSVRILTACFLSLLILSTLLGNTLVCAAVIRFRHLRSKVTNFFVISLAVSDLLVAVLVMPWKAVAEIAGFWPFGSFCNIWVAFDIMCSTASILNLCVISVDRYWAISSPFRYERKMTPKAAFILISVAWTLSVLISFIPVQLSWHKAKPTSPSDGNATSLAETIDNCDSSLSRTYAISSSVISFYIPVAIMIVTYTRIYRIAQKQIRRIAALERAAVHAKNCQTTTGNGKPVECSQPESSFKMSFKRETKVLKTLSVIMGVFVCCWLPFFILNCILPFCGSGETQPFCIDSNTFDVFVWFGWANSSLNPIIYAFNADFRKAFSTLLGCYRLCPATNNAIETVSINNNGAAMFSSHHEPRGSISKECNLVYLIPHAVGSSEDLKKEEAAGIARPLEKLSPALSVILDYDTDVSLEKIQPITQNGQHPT

[8] = target: T1, human dopamine D1 receptor; remark: listed apart in the source
[9] = target: T1, human dopamine D1 receptor; remark: listed apart in the source

Chain of human dopamine D5 receptor (P21918 whole entry): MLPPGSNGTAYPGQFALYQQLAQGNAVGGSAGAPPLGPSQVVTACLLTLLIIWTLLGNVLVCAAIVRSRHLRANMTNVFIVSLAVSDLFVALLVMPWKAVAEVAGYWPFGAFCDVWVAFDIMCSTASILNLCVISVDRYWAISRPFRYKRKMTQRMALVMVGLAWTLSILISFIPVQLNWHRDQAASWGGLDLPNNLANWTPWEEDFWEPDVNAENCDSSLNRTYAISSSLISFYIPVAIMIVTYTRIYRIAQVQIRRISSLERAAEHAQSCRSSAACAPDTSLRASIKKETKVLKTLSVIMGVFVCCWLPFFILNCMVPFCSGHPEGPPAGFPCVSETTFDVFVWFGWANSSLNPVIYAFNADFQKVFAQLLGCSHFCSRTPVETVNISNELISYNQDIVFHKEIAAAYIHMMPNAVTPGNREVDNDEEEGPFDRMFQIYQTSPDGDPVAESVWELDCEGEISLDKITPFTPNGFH
Chain of human 5HT6 receptor (P50406 whole entry): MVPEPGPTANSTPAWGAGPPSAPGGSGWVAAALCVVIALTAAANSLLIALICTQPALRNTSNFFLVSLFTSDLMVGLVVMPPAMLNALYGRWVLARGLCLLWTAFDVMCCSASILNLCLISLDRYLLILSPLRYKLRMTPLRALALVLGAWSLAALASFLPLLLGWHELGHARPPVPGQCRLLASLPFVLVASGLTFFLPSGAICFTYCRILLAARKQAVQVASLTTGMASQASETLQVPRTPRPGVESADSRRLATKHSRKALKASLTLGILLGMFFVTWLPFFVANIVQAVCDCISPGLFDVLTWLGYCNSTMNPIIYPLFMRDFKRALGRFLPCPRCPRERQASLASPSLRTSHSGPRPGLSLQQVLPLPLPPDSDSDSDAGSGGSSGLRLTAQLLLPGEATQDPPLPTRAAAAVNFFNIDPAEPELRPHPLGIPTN
Chain of human 5HT4 receptor (Q13639 whole entry): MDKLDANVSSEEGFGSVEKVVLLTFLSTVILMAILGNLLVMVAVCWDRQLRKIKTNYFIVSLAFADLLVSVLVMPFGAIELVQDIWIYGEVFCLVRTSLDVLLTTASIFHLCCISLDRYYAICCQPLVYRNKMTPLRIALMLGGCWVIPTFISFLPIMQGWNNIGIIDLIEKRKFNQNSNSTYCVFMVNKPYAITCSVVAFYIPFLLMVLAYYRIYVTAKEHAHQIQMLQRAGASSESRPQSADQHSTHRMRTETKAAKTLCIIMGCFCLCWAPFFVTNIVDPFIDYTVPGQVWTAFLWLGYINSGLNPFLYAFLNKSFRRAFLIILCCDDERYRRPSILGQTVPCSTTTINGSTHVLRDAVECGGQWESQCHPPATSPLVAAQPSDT
Chain of human 5HT7 receptor (P34969 whole entry): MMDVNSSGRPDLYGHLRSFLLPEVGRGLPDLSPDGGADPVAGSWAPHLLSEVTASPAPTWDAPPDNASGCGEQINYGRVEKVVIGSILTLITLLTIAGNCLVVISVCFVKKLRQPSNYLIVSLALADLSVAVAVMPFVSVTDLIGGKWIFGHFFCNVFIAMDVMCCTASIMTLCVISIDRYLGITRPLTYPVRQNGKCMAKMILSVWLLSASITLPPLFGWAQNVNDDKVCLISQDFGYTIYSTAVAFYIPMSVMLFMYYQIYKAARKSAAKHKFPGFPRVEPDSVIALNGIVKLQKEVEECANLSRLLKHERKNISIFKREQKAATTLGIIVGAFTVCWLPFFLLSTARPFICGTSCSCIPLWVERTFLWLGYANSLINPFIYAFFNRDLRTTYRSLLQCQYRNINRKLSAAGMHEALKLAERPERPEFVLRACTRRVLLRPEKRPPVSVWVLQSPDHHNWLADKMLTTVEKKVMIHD

Binder | max Ca2+ signal, COS-7, FLIPR; agonist GLP-1 [1] [fluorescence units] | max Ca2+ signal, COS-7, FLIPR; agonist 5HT [2] [fluorescence units] | max Ca2+ signal, COS-7, FLIPR; agonist DA [3] [fluorescence units] | max Ca2+ signal, COS-7, FLIPR; agonist 5HT [4] [fluorescence units] | max Ca2+ signal, COS-7, FLIPR; agonist 5HT [5] [fluorescence units] | max Ca2+ signal, COS-7, FLIPR; agonist NE [6] [fluorescence units] | max Ca2+ signal, COS-7, FLIPR; agonist DA [7] [fluorescence units] | max Ca2+ signal, COS-7, FLIPR; 100 µM dopamine [8] [fluorescence units] | max Ca2+ signal, COS-7, FLIPR; agonist dopamine; fold over hGαq/s9 [9] [fold]
Human Gαq/s5 (other) MTLESIMACCLSEEAKEARRINDEIERQLRRDKRDARRELKLLLLGTGESGKSTFIKQMRIIHGSGYSDEDKRGFTKLVYQNIFTAMQAMIRAMDTLKIPYKYEHNKAHAQLVREVDVEKVSAFENPYVDAIKSLWNDPGIQECYDRRREYQLSDSTKYYLNDLDRVADPSYLPTQQDVLRVRVPTTGIIEYPFDLQSVIFRMVDVGGQRSERRKWIHCFENVTSIMFLVALSEYDQVLVESDNENRMEESKALFRTIITYPWFQNSSVILFLNKKDLLEEKIMYSHLVDYFPEYDGPQRDAQAAREFILKMFVDLNPDSDKIIYSHFTCATDTENIRFVFAAVKDTILQLNLKQYELL | 189 | 0 | 0 | 1710 | 98 | 43 | 0 | – | –
Human Gαq/z5 (identical to Accession number L76256) (other) MTLESIMACCLSEEAKEARRINDEIERQLRRDKRDARRELKLLLLGTGESGKSTFIKQMRIIHGSGYSDEDKRGFTKLVYQNIFTAMQAMIRAMDTLKIPYKYEHNKAHAQLVREVDVEKVSAFENPYVDAIKSLWNDPGIQECYDRRREYQLSDSTKYYLNDLDRVADPAYLPTQQDVLRVRVPTTGIIEYPFDLQSVIFRMVDVGGQRSERRKWIHCFENVTSIMFLVALSEYDQVLVESDNENRMEESKALFRTIITYPWFQNSSVILFLNKKDLLEEKIMYSHLVDYFPEYDGPQRDAQAAREFILKMFVDLNPDSDKIIYSHFTCATDTENIRFVFAAVKDTILQLNLKYIGLC | – | – | – | – | – | – | – | 0 | –
Human Gαq/s9 (other) MTLESIMACCLSEEAKEARRINDEIERQLRRDKRDARRELKLLLLGTGESGKSTFIKQMRIIHGSGYSDEDKRGFTKLVYQNIFTAMQAMIRAMDTLKIPYKYEHNKAHAQLVREVDVEKVSAFENPYVDAIKSLWNDPGIQECYDRRREYQLSDSTKYYLNDLDRVADPSYLPTQQDVLRVRVPTTGIIEYPFDLQSVIFRMVDVGGQRSERRKWIHCFENVTSIMFLVALSEYDQVLVESDNENRMEESKALFRTIITYPWFQNSSVILFLNKKDLLEEKIMYSHLVDYFPEYDGPQRDAQAAREFILKMFVDLNPDSDKIIYSHFTCATDTENIRFVFAAVKDTILQMHLRQYELL | 4200 | 0 | 745 | 2310 | 999 | 1440 | 5690 | – | –
D. melanogaster Gαq/z5 (other) MECCLSEEAKEQKRINQEIEKQLRRDKRDARRELKLLLLGTGESGKSTFIKQMRIIHGSGYSDEDKRGYIKLVFQNIFMAMQSMIKAMDMLKISYGQGEHSELADLVMSIDYETVTTFEDPYLNAIKTLWDDAGIQECYDRRREYQLTDSAKYYLKDLDRVAQPAYLPTEQDILRVRVPTTGIIEYPFDLEEIRFRMVDVGGQRSERRKWIHCFENVTSIIFLVALSEYDQILFESDNENRMEESKALFRTIITYPWFQNSSVILFLNKKDLLEEKIMYSHLVDYFPEYDGPQRDAITAREFILRMFVDLNPDSEKIIYSHFTCATDTENIRFVFAAVKDTILQSNLKYIGLC | – | – | – | – | – | – | – | 2150 | –
C. elegans Gαq/s9 (other) MACCLSEEAREQKRINQEIEKQLQRDKRNARRELKLLLLGTGESGKSTFIKQMRIIHGQGYSEEDKRAHIRLVYQNVFMAIQSMIRAMDTLDIKFGNESEELQEKAAVVREVDFESVTSFEEPYVSYIKELWEDSGIQECYDRRREYQLTDSAKYYLSDLRRLAVPDYLPTEQDILRVRVPTTGIIEYPFDLEQIIFRMVDVGGQRSERRKWIHCFENVTSIMFLVALSEYDQVLVECDNENRMEESKALFRTIITYPWFTNSSVILFLNKKDLLEEKILYSHLADYFPEYDGPPRDPIAAREFILKMFVDLNPDADKIIYSHFTCATDTENIRFVFAAVKDTILQMHLRQYELL | 2460 | 387 | 1870 | 1700 | 1640 | 3110 | 8690 | – | 1.5
C. elegans Gαq/s21 (other) MACCLSEEAREQKRINQEIEKQLQRDKRNARRELKLLLLGTGESGKSTFIKQMRIIHGQGYSEEDKRAHIRLVYQNVFMAIQSMIRAMDTLDIKFGNESEELQEKAAVVREVDFESVTSFEEPYVSYIKELWEDSGIQECYDRRREYQLTDSAKYYLSDLRRLAVPDYLPTEQDILRVRVPTTGIIEYPFDLEQIIFRMVDVGGQRSERRKWIHCFENVTSIMFLVALSEYDQVLVECDNENRMEESKALFRTIITYPWFTNSSVILFLNKKDLLEEKILYSHLADYFPEYDGPPRDPIAAREFILKMFVDLNPDADKIIYSHFTCATDTENIRRVFNDCRDIIQRMHLRQYELL | 3120 | 206 | 3380 | 1730 | 1010 | 3510 | 9430 | – | –
